Measurements as given in article PMC10761944, “Modular assembly of an artificially concise biocatalytic cascade for the manufacture of phenethylisoquinoline alkaloids” (Nature Communications, 2024).

How the values were obtained:
TfNCS = molecular target: T1, TfNCS (Thalictrum flavum, UniProt C3SBV6); assay: product by HPLC, coupled to TpCAR; assay type: biochemical; conditions: 1a formed in situ from 1 by TpCAR; co-substrate dopamine; HEPES pH 7.5, 30 °C
T1 construct: codon-optimised synthetic gene, E. coli BL21(DE3), Ni-NTA purified

RnCOMT = molecular target: T2, RnCOMT (Rattus norvegicus, UniProt P22734); assay: conversion by HPLC; assay type: biochemical; conditions: 4 mM SAM, 10 mM MgCl2, HEPES pH 7.5, 30 °C, 2 h
T2 construct: gene Comt; codon-optimised synthetic gene, E. coli BL21(DE3), Ni-NTA purified
T2 sequence (P22734 1-264): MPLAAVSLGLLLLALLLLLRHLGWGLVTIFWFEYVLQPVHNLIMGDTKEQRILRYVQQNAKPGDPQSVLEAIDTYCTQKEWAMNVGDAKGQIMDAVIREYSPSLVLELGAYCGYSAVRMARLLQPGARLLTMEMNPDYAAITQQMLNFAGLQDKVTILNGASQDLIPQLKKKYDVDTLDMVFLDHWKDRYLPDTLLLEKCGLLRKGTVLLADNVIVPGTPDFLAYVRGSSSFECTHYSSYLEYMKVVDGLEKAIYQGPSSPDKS

CNMT = molecular target: T3, CNMT (Coptis japonica, UniProt Q948P7); assay: product titer by HPLC, coupled to RnCOMT; assay type: biochemical; conditions: SAM; (S)-1c formed in situ from 2 mM (S)-1b; HEPES pH 7.5, 30 °C, 4 h
T3 construct: codon-optimised synthetic gene, E. coli BL21(DE3), Ni-NTA purified

[1] = tested on: COc1cc(CC[C@@H]2NCCc3cc(O)c(O)cc32)cc(O)c1OC; assay: initial rates by HPLC, Michaelis-Menten fit; assay type: biochemical, Gloriosa superba; conditions: SAM as methyl donor, 200 mM potassium phosphate pH 7.5, 30 °C

Compound	Km [1] [µM]	kcat [1] [s⁻¹]	other results
COc1cc(CCC=O)cc(OC)c1OC [1a]			product by HPLC, coupled to TpCAR (TfNCS): (S)−1b was efficiently synthesized without the accumulation of intermediate 1a
COc1cc(CC[C@@H]2NCCc3cc(O)c(O)cc32)cc(OC)c1OC [(S)-1b]			conversion by HPLC (RnCOMT): the enzymatic activity of RnCOMT towards (S)−1b was much better than that of GsOMT1
COc1cc2c(cc1O)[C@H](CCc1cc(OC)c(OC)c(OC)c1)NCC2 [(S)-1c]			product titer by HPLC, coupled to RnCOMT (CNMT): CNMT showed a very weak catalytic activity towards (S)−1c
GsOMT1 (Gloriosa superba)	630 ± 50	4.56 ± 0.24	
GsOMT1 (Gloriosa superba; V125Q)	330 ± 20	8.65 ± 0.26	
